Laboratory results from patent US20210205413A1 (Nektar Therapeutics, priority 2018, published 2021).
Values joined by “and” are separate entries in the source; they are usually repeats but may differ in a detail not shown here. Equal values may be shown once. “Also recorded” adds a separate entry of the source.

Key:
human IL-2Rβ = target: T1, human IL-2Rβ (Homo sapiens, UniProt P14784); experiment: Affinity to the IL-2 receptor by surface plasmon resonance; type: binding; settings: SPR
T1 sequence (P14784 27-551): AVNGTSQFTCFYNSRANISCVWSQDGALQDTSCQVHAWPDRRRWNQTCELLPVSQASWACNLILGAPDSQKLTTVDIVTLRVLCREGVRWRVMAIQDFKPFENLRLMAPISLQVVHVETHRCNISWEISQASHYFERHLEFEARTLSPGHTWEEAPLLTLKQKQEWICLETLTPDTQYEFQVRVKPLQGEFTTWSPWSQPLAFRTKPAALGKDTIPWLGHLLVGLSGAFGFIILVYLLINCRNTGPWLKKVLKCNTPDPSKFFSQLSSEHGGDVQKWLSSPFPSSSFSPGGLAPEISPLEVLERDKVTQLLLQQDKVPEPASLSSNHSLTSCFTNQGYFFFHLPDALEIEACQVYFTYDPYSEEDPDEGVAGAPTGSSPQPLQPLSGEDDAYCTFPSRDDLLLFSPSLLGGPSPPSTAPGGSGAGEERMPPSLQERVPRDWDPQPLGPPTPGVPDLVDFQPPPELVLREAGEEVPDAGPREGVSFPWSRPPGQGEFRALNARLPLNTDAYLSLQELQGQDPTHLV
Method: Impaired IL-2 production and regulatory T cell dysfunctions have been implicated as an immunological mechanism in multiple autoimmune diseases. While low-dose IL-2 can be used to stimulate Tregs for clinical benefit, poor pharmacokinetics necessitates daily delivery, adverse events are dose-limiting, and Treg increases are modest and short-lived. […] The affinity to the IL-2 receptor is assessed by surface plasmon resonance. Activity in human PBMC can be measured by pSTAT5 induction in multiple lymphocyte populations using flow cytometry and time-of-flight mass cytometry (CyToF). In vivo activity after subcutaneous administration in C57BL/6 mice or cynomolgus monkey is measured by changes in lymphocyte numbers and activation by flow cytometry. Ex vivo Treg function is determined by the inhibition of Tcon proliferation by isolated splenic Treg. Efficacy is assessed in a model of systemic lupus erythematosus (SLE) using MRL/MpJ-Faslpr mice. […] In mice, a single administration leads to sustained Treg mobilization for 7-10 days in blood and spleen without Tcon activation, an effect concomitant with induction of Treg activation markers and increased ex vivo suppressive capacity. […] Finally, an RUR20kD-IL-2 composition is efficacious in mouse models of SLE.

[1] = Single dose pharmacokinetics in monkeys (IV and SC); type: in vivo, Cynomolgus Monkeys
[2] = tested on: Balb/C mice (OVA food allergy model); experiment: Food allergy model (OVA sensitization and oral challenge); type: in vivo
Method: To develop the DTH model, Balb/c mice are sensitized with a subcutaneous administration of a model antigen keyhole limpet hemocyanin (KLH) emulsified in complete and incomplete Freund's adjuvant. […] Inflamed ears are subjected to immunohistochemistry (IHC) to quantify percent of FoxP3+ Treg cells post KLH challenge. The specificity of response is assessed after an additional 3-4 weeks with no treatment by either KLH rechallenge or conducting sensitization and challenge with an unrelated antigen ovalbumin (OVA). […] Post ten days of 2nd sensitization, mice are challenged with OVA eight times orally, every alternative day. […] Severity of allergic response is assessed by clinical scoring within 30-45 min of post 8th challenge. Further, serum mast cell protease 1 (MCPT 1) and OVA specific IgE titers are quantified. The percent Treg is determined by flow cytometry in peripheral blood and in spleen.

[3] = Phase I single ascending subcutaneous dose study in healthy volunteers: pharmacokinetics; type: in vivo, human; settings: for AUC0-14 d / Cmax / tmax: Single Dose Study
Method: (§1) A double-blind, randomized, placebo-controlled study is conducted to evaluate the safety, tolerability, pharmacokinetics, and pharmacodynamics of single ascending low sub-cutaneous doses of an RUR20kD-IL-2 composition (RUR20kD-IL-2) in healthy volunteers. […] Twelve subjects are randomized to each dose cohort, nine of whom received a single subcutaneous dose of RUR20kD-IL-2 while three received placebo. […] The drug product is supplied in single-use glass vials and stored at 2-8° C. […] Placebo is a commercially available 0.9% sodium chloride solution. A starting dose of 0.3 μg/kg is chosen using the minimally anticipated biological effect level (MABEL) approach and is supported by the no observed adverse effect level (NOAEL) in the most sensitive species from nonclinical toxicology studies.
(§2) The primary objective of the study is to evaluate the safety and tolerability of RUR20kD-IL-2 administered as a single subcutaneous dose. […] In a first phase of the study, immune markers are tested pre-dose up to 20 hours post-dose. Specifically, Tregs, CD4^+-T cells, CD8^+-T cells, natural killer (NK) cells, cytokines, soluble CD25, and RNA are tested in RUR20kD-IL-2- and placebo-receiving cohorts. In subsequent phases, the same immune markers are also tested at 4-, 5-, 6-, 7-, 8-, 10-, 12-, 15-, 18-, 20-, 25-, 30-, 40, and 50-days post-dose.

CD4+ and CD8+ T cells = experiment: Phase I single ascending dose study in healthy volunteers: Tcon cells; type: in vivo, human
Method: as §1, §2

[4] = cynomolgus monkeys, single IV 0.025 mg/kg, mean of male and female
[5] = cynomolgus monkeys, single SC 0.025 mg/kg, mean of male and female

(1,3-bis(methoxypoly(ethylene glycol)10kDcarbamoyl)-2-propanoxy)-4-butanamide)interleukin-2) [RUR20kD-IL-2]
affinity for human IL-2Rβ relative to IL-2Ra and IL-2Rαβ complexes (human IL-2Rβ): greatly attenuated affinity | AUCinf [1, 4]: 100000 ng·h/mL | AUClast [1, 4]: 71200 ng·h/mL | Half-life [1, 4]: 310 h | MRTinf [1, 4]: 403 h | Vss [1, 4]: 0.1 L/kg | CL ([1]; cynomolgus monkeys, single IV 0.025 mg/kg, mean of male and female, 0.025 mg/kg): 5.88 mL/day/kg and 6 mL/day/kg | AUCinf [1, 5]: 86000 ng·h/mL | AUClast [1, 5]: 65400 ng·h/mL | Cmax [1, 5]: 250 ng/mL | Half-life [1, 5]: 250 h | MRTinf [1, 5]: 360 h | Vss relative to species-specific plasma volume ([1]; monkeys): 2-4 fold | half-lives ([1]; monkeys, intravenous or subcutaneous dosing, range): 10.4 to 12.9 days | Tregs (flow cytometry, peripheral blood and spleen) ([2]; SC 0.1 mg/kg q3d×3): significant increase in Tregs | levels of MCPT1 and anti-OVA specific IgE titers ([2]; SC 0.1 mg/kg q3d×3): significant decrease in levels of MCPT1 and anti-OVA specific IgE titers | anaphylaxis symptoms (clinical scores) ([2]; SC 0.1 mg/kg q3d×3, repeated oral OVA): efficacious in decreasing the high degree of anaphylaxis symptoms | AUC0-14 d ([3]; 3.0 μg/kg, Median (n = 9)): 214 ng·days/mL | Cmax ([3]; 3.0 μg/kg, Median (n = 9)): 21 ng/mL | tmax ([3]; 3.0 μg/kg, Median (n = 9)): 84 h | AUC0-14 d ([3]; 3.0 μg/kg, max): 388 ng·days/mL | Cmax ([3]; 3.0 μg/kg, max): 41 ng/mL | tmax ([3]; 3.0 μg/kg, max): 336 h | AUC0-14 d ([3]; 3.0 μg/kg, min): 143 ng·days/mL | Cmax ([3]; 3.0 μg/kg, min): 13 ng/mL | tmax ([3]; 3.0 μg/kg, min): 31.2 h | Cmax ([3]; 6.0 μg/kg, Median (n = 9)): 46 ng/mL | tmax ([3]; 6.0 μg/kg, Median (n = 9)): 120 h | AUC0-14 d ([3]; 6.0 μg/kg, max): 705 ng·days/mL | Cmax ([3]; 6.0 μg/kg, max): 70 ng/mL | tmax ([3]; 6.0 μg/kg, max): 220 h | AUC0-14 d ([3]; 6.0 μg/kg, min): 73 ng·days/mL | Cmax ([3]; 6.0 μg/kg, min): 13 ng/mL | tmax ([3]; 6.0 μg/kg, min): 48 h | Half-life ([3]; healthy volunteers, single SC dose, decline after approximately 2 weeks post-dose, preliminary): 190 to 220 h | time of maximum concentrations post-dose ([3]; healthy volunteers, single SC dose, preliminary PK analysis): 4 to 6 days | absolute number of CD8+ T cells and percentage of Ki67+ CD8+ T cells (CD4+ and CD8+ T cells; single SC 13.5 μg/kg): small increases | percentage or numbers of T cell populations (CD4+, CD8+) (CD4+ and CD8+ T cells; single SC dose, any dose): no changes in percentage or numbers of T cell populations (CD4+, CD8+); also recorded: no changes in percentages or numbers of conventional CD4+ or CD8+ T cells
